The text below walks through data of patent US20230228751 (APTAMER DIAGNOSTICS LIMITED, published 2023).

Assay in all cases: BLI
For data set [1], the target named is SARS-CoV spike S1 subunit (SARS-CoV, UniProt P59594 SEQ:14-667). Particulars: tags: SinoBiological; label: 5' biotin.
Data set [2] has as its target SARS-CoV-2 spike S1 subunit (SARS-CoV-2, UniProt P0DTC2 SEQ:1-670). Particulars: tags: His tag, SinoBiological 40591-V08B1; label: 5'-biotin.
Data set [3] deals with SARS-CoV-2 spike RBD (SARS-CoV-2, UniProt P0DTC2 SEQ:1-223). Particulars: tags: His tag; SinoBiological 40592-V08H; label: 5' biotin.

B1: S1_D4 (ssDNA)
DNA: CCAGTGTAGACTACTCAATGCGGCTTCGGGAGGGGGGGCGGGTAAAAAGCCCATTGCCCTAGTACTATCCACAGGTCAACC
On to B1, for which the binding result in data set [1] is “no binding”; in data set [2] it was “binds”; in data set [3], “binds”.

B2: S1_C3-B (ssDNA)
DNA: CCAGTGTAGACTACTCAATGCCGATGGGTCGGGGGGGTGGGTAGGCATTGATCGCTCCTTCCGTACTATCCACAGGTCAACC
Turning to B2, the figures for the binding result in data set [1], in data set [2] and in data set [3] were “no binding”, “binds” and “binds”, respectively.

B3: S1_C11 (ssDNA)
DNA: CCAGTGTAGACTACTCAATGCCGTGGACTGGTCGGGTTTGGATTCGGCAGATGAATCCAGTAGTACTATCCACAGGTCAACC
For B3, the binding result was “no binding” in data set [1], “binds” in data set [2] and “binds” in data set [3].

B4: S1_C1-B (ssDNA)
DNA: CCAGTGTAGACTACTCAATGCCGCTTCTCGACCGCCCCTTGTTTTGGTTCTTTTGTCCGTAGTACTATCCACAGGTCAACC
Consider B4, for which the binding result in data set [1] is reported as “no binding”; in data set [2], “binds”; in data set [3] it was “binds”.

B5: S1_D1 (ssDNA)
DNA: CCAGTGTAGACTACTCAATGCATTCCTTTTGCTACCTATATTCCGTCTCCAGCATAATCCCGTACTATCCACAGGTCAACC
As for B5, the results for the binding result in data set [1], in data set [2] and in data set [3] were “no binding”, “binds” and “binds”, respectively.

B6: S1_D2 (ssDNA)
DNA: CCAGTGTAGACTACTCAATGCTAGGTCCGTGGGATGGGTGGGGGGGAGGACCAGCCAGCGAGTACTATCCACAGGTCAACC
For B6, the results for the binding result in data set [1], in data set [2] and in data set [3] were “no binding”, “binds” and “binds”, respectively.

B7: S1_B11-A (ssDNA)
DNA: CCAGTGTAGACTACTCAATGCGTGTGGTGACCTTGACCTTGGATTATGGGTTTGGGCGGGAGGGTACTATCCACAGGTCAACC
In the case of B7, the binding result in data set [1] is on record as “no binding”; in data set [2], “binds”; in data set [3], “binds”.

B8: S1_C4 (ssDNA)
DNA: CCAGTGTAGACTACTCAATGCTACTGATTCATCTGCCGAATCCAAACCCGACCAGTCCACGGTACTATCCACAGGTCAACC
For B8, the binding result in data set [1] was “no binding”; in data set [2] it was “binds”; in data set [3], “binds”.

B9: S1_C12 (ssDNA)
DNA: CCAGTGTAGACTACTCAATGCGTGGGAAGGGTGGGTGGGAGCATTGATAACTCGGAGGAGCGTACTATCCACAGGTCAACC
Regarding B9, the results for the binding result in data set [1], in data set [2] and in data set [3] were “no binding”, “binds” and “binds”, respectively.

B10: S1_D8 (ssDNA)
DNA: CAGTGTAAGACTACTCAATGCCGTGGACTGGTCGGGTTTGGATTCGGCAGATGAATCAGTAGTACTATCCACAGGTCAACC
B10: the binding result is listed as “no binding” in data set [1], “binds” in data set [2] and “binds” in data set [3].

B11: S1_C2 (ssDNA)
DNA: CCAGTGTAGACTACTCAATGCGGCTGTGTGACTTGACCTCTGGATATGGGTGGGAGGGATGGGTACTATCCACAGGTCAACC
For B11, the figures for the binding result in data set [1], in data set [2] and in data set [3] were “no binding”, “binds” and “binds”, respectively.
